The values below come from publication PMC12415261 (Proceedings of the National Academy of Sciences of the …, 2025).

The chains are these.
B1: ALK3-Fc (homodimeric Fc-fusion of ALK3-ECD) [human] / Recombinant human BMP6, mammalian expressed (glycosylated) [modified: N-linked glycosylation at Asn454 (prehelical loop); N-linked glycosylation at Asn454 (prehelical loop)] [human] (parent complex)
chain 1: QNLDSMLHGTGMKSDSDQKKSENGVTLAPEDTLPFLKCYCSGHCPDDAINNTCITNGHCFAIIEEDDQGETTLASGCMKYEGSDFQCKDSPKAQLRRTIECCRTNLCNQYLQPTLPPVVIGPFFDGSIR
chain 2: SASSRRRQQSRNRSTQSQDVARVSSASDYNSSELKTACRKHELYVSFQDLGWQDWIIAPKGYAANYCDGECSFPLNAHMNATNHAIVQTLVHLMNPEYVPKPCCAPTKLNAISVLYFDDNSNVILKKYRNMVVRACGCH

Variants of B1 are the subject of the test. Description: SPR; top curve of the analyte series, read at the end of association (about 300 s); analyte concentrations not given; receptor-Fc captured by anti-human antibody; read off a plot. In general terms: Surface plasmon resonance follows binding to a sensor surface in real time, without labels.
chain 1 QNLDSMLHGTGMKSDSDQKKSENGVTLAPEDTLPFLKCYCSGHCPGDAINNTCITNGHCFAIIEEDDQGETTLASGCMKYEGSDFQCKDSPKAQLRRTIECCRTNLCNQYLQPTLPPVVIGPFFDGSIR [chain 1 D46G]: the response is approximately 9.5 RLU.
